The values below come from article PMC9485058, “Glycosylation of a key cubilin Asn residue results in reduced binding to albumin” (The Journal of Biological Chemistry, 2022).

Several values for one entry are separate records, joined by “and”; a condition that tells them apart may be missing. Equal values may be shown once.

The chains are these.
B4: rat serum albumin (RSA) (natural protein, UniProt P02770 25-608, looked up)
chain: EAHKSEIAHRFKDLGEQHFKGLVLIAFSQYLQKCPYEEHIKLVQEVTDFAKTCVADENAENCDKSIHTLFGDKLCAIPKLRDNYGELADCCAKQEPERNECFLQHKDDNPNLPPFQRPEAEAMCTSFQENPTSFLGHYLHEVARRHPYFYAPELLYYAEKYNEVLTQCCTESDKAACLTPKLDAVKEKALVAAVRQRMKCSSMQRFGERAFKAWAVARMSQRFPNAEFAEITKLATDVTKINKECCHGDLLECADDRAELAKYMCENQATISSKLQACCDKPVLQKSQCLAEIEHDNIPADLPSIAADFVEDKEVCKNYAEAKDVFLGTFLYEYSRRHPDYSVSLLLRLAKKYEATLEKCCAEGDPPACYGTVLAEFQPLVEEPKNLVKTNCELYEKLGEYGFQNAVLVRYTQKAPQVSTPTLVEAARNLGRVGTKCCTLPEAQRLPCVEDYLSAILNRLCVLHEKTPVSEKVTKCCSGSLVERRPCFSALTVDETYVPKEFKAETFTFHSDICTLPDKEKQIKKQTALAELVKHKPKATEDQLKTVMGDFAQFVDKCCKAADKDNCFATEGPNLVARSKEALA
modifications: in MST: Texas Red-X succinimidyl ester or Oregon Green 488-X succinimidyl ester conjugate, dye:protein molar ratio 1:1
notes: serum albumin, rat, UniprotKB P02770; Labelled with dye in MST; also called rat albumin; source: bought: Sigma

The target in data set [1] is B4. Nature of the data set: MST; Monolith NT.115, standard capillaries, 25 °C, 67 mM NaPO4, 150 mM NaCl, 0.05% Tween 20, pH 7.4 + 1 mM CaCl2; albumin labelled with a fluorescent dye (1:1), cubilin domain unlabelled.
For data set [2], the target named is RSA 1 mM methylglyoxal (RSA1MGO) (rat) (UniProt P02770). Described as above.
The target of data set [3] is RSA 20 mM glucose (RSA20G) (rat) (UniProt P02770). The data set is described as above.
In data set [4] the target is RSA 200 mM glucose (RSA200G) (rat) (UniProt P02770). Described as above.
Data set [5] addresses RSA 5 mM methylglyoxal (RSA5MGO) (rat) (UniProt P02770). The data set is described as above.
Data set [6] has as its target RSA 500 mM glucose (RSA500G) (rat) (UniProt P02770). The description is as above.
Data set [7] has as its target Albumin (Rattus norvegicus) (UniProt P02770). Particulars: cited from earlier work.
Data set [8] deals with B4. In words: MST; as a1 but at pH 6.0; albumin labelled.
Data set [9] concerns the target B4. Nature of the data set: MST; as a1 but at pH 5.0 (buffer not told); albumin labelled.
In the next data set the target is T1, rabbit albumin (rabbit, UniProt P49065 25-608, fluorescent dye conjugate for MST (Texas Red-X or Oregon Green 488-X succinimidyl ester)).
T1 construct: albumin, rabbit
In words: MST; Monolith NT.115, standard capillaries, 25 °C, 67 mM NaPO4, 150 mM NaCl, 0.05% Tween 20, pH 7.4 + 1 mM CaCl2; albumin labelled with a fluorescent dye (1:1), cubilin domain unlabelled. Particulars: both partners purified.

For a further data set, the target named is T2, human albumin (human, UniProt P02768 25-609, fluorescent dye conjugate for MST (Texas Red-X or Oregon Green 488-X succinimidyl ester)).
T2 construct: albumin, human
The data set is described as above. To be noted: both partners purified.

The next data set has as its target T3, bovine albumin (bovine, UniProt P02769 25-607, fluorescent dye conjugate for MST (Texas Red-X or Oregon Green 488-X succinimidyl ester)).
T3 construct: albumin, bovine
The description is as above. Particulars: both partners purified.

Data set [10] concerns the molecule itself. In words: SEC-MALS; data not shown; CUB7,8N1285P. A general note: Size exclusion chromatography separates by hydrodynamic size, large species first.
Data set [11] concerns the molecule itself. In words: SEC-MALS; Agilent Infinity II HPLC with Wyatt DAWN HELEOS II and Optilab T-rEX, 25 °C, running buffer with 2% v/v glycerol; cubilin domains not treated with any glycosidase.

T3 sequence (P02769 25-607): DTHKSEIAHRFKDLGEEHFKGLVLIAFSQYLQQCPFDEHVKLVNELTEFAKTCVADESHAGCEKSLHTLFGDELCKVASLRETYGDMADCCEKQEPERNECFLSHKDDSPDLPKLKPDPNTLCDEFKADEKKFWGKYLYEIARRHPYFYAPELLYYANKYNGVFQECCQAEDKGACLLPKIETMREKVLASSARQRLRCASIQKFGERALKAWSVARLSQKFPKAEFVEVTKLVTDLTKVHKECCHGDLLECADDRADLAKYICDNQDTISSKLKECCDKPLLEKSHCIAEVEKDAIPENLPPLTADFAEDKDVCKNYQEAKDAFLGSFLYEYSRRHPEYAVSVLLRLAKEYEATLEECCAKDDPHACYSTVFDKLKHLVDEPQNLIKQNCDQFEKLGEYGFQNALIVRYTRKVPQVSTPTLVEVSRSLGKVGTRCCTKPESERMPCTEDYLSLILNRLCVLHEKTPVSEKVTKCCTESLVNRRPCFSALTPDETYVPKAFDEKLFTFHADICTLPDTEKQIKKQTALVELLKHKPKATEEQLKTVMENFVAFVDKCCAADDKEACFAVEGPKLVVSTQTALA
T2 sequence (P02768 25-609): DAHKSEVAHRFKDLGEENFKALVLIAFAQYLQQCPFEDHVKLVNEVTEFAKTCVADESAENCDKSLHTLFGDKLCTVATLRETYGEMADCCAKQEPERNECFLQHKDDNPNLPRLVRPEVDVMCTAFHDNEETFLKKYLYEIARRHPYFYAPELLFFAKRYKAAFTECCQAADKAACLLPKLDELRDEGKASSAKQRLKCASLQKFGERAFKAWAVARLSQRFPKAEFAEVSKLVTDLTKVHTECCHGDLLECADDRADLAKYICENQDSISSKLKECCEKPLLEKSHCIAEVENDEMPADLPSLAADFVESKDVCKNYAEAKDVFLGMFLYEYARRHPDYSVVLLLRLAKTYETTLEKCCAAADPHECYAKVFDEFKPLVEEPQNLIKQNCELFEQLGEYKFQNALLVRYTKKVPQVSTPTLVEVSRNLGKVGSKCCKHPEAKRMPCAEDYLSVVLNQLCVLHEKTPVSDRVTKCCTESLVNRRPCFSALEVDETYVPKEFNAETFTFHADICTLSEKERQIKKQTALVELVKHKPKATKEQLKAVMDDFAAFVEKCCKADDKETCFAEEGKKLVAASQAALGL
T1 sequence (P49065 25-608): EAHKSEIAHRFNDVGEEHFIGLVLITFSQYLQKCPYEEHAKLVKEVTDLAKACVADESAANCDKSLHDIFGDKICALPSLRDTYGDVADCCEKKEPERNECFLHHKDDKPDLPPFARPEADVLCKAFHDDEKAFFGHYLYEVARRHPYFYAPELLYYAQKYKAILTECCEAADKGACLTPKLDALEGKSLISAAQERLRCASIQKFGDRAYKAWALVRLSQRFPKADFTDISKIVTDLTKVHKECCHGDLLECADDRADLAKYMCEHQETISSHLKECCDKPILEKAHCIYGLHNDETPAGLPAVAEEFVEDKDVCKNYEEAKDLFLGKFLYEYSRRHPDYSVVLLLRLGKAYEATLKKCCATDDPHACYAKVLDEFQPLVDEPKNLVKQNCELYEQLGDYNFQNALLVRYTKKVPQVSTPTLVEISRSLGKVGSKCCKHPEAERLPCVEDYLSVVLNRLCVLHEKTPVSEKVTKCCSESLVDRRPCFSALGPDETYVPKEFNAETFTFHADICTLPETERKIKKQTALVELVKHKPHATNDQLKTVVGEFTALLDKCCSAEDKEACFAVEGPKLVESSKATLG

Take “CUB7,8 (cubilin 7,8 domain), glycosylated, not treated with PNGaseF (from UniProt O70244 1165-1389) (domain or fragment)”: in the data set with rat serum albumin (RSA) [1], the equilibrium dissociation constant (Kd) is greater than 100 µM.
Consider “PNGaseF-deglycosylated CUB6–8 (domain or fragment)”, for which the dissociation constant (Kd) in data set [2] is 28 µM; in data set [3], 2000 µM; in data set [4], 9.4 µM; in [5], greater than 100 µM; in data set [6] it was greater than 100 µM; in the data set with rat serum albumin (RSA) [1], 500 to 1000 µM. In addition, in the data set with rat serum albumin (RSA) [1] (record 2), the dissociation constant Kd is 0.5 to 1 µM and 1 µM.
Cubilin (from UniProt O70244): the Kd in data set [7] was 0.63 µM.

B1: CUB6–8 (cubilin 6–8 domain), glycosylated, not treated with PNGaseF (domain or fragment)
chain: CLYDYTDNFGMLSSPNFPNNYPSNWECIYRITVGLNQQIALHFTDFTLEDYFGSQCVDFVEIRDGGYETSPLVGIYCGSVLPPTIISHSNKLWLKFKSDAALTAKGFSAYWDGSSTGCGGNLTTPTGVLTSPNYPMPYYHSSECYWRLEASHGSPFELEFQDFHLEHHPSCSLDYLAVFDGPTTNSRLIDKLCGDTTPAPIRSNKDVVLLKLRTDAGQQGRGFEINFRQRCDNVVIVNKTSGILESINYPNPYDKNQRCNWTIQATTGNTVNYTFLGFDVESYMNCSTDYVELYDGPQWMGRYCGNNMPPPGATTGSQLHVLFHTDGINSGEKGFKMQWFTHG
modifications: N-glycans as made in 293F cells
As for B1, the Kd with rat serum albumin (RSA) [1] (both partners purified) is greater than 100 µM.

B2: PNGaseF-deglycosylated CUB7,8 (domain or fragment, rat, UniProt O70244 1165-1389, looked up)
chain: CGGNLTTPTGVLTSPNYPMPYYHSSECYWRLEASHGSPFELEFQDFHLEHHPSCSLDYLAVFDGPTTNSRLIDKLCGDTTPAPIRSNKDVVLLKLRTDAGQQGRGFEINFRQRCDNVVIVNKTSGILESINYPNPYDKNQRCNWTIQATTGNTVNYTFLGFDVESYMNCSTDYVELYDGPQWMGRYCGNNMPPPGATTGSQLHVLFHTDGINSGEKGFKMQWFTH
modifications: N-glycans removed with PNGaseF
notes: cubilin, rat, CUB7 (1165–1277) and CUB8 (1278–1389) of full length cubilin UniProtKB O70244; also called CUB7,8 after PNGaseF treatment (+); His tagged CUB7,8 domain; not shown: His6, C-terminal, kept
B2: the dissociation constant (Kd) is 1700 µM with rat serum albumin (RSA) [8]; 1400 µM with rat serum albumin (RSA) [9]; 35 µM in data set [2]; 2500 µM in data set [3]; 25.6 µM in data set [4]; greater than 100 µM in [5]. Also, the Kd was greater than 100 µM in data set [6]; 0.9 to 1.4 µM in the data set with rabbit albumin; 0.95 to 1.5 µM with human albumin; greater than 100 µM with bovine albumin; 0.5 to 1.2 µM in the data set with rat serum albumin (RSA) [1]; 500 to 1000 µM with rat serum albumin (RSA) [1] (record 2).

B3: CUB7,8-N1285P, not treated with PNGaseF (domain or fragment, rat, UniProt O70244 1165-1389, looked up)
chain: CGGNLTTPTGVLTSPNYPMPYYHSSECYWRLEASHGSPFELEFQDFHLEHHPSCSLDYLAVFDGPTTNSRLIDKLCGDTTPAPIRSNKDVVLLKLRTDAGQQGRGFEINFRQRCDNVVIVPKTSGILESINYPNPYDKNQRCNWTIQATTGNTVNYTFLGFDVESYMNCSTDYVELYDGPQWMGRYCGNNMPPPGATTGSQLHVLFHTDGINSGEKGFKMQWFTH
modifications: N-glycans as made in 293F cells (N1168, N1303, N1319 by MS, Table 2)
notes: also called CUB7,8 N1285P mutant; source: 293F cells, purified as the other cubilin proteins (Ni-NTA Superflow, gel filtration)
Regarding B3, in [10], the “stoichiometry N” value amounted to 2.
Turning to B4, the “stoichiometry N” value in [11] was found to be 2.

A word on the Kd: it is the free concentration of one partner at which half of the binding sites on the other are occupied at equilibrium, for simple one-to-one binding. One may read the stoichiometry N as the number of molecules, sites or subunits per partner or assembly.
